Drawing on patent US20250076311A1 (Chugai, published 2025), this text covers kon and Kd for 2 molecules.

Test [1] deals with T1, Human latent myostatin (human, UniProt O14793 25-266; O14793 267-375).
T1 construct: Biotinylated in the ELISAs; also called human myostatin latent form
T1 sequence 1: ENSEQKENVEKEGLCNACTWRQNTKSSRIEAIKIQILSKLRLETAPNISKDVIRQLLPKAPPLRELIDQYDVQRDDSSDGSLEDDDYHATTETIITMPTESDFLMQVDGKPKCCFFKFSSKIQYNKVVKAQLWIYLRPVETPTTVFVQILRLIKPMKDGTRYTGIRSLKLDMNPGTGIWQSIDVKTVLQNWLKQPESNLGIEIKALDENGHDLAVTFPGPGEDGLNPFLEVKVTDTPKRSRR
T1 sequence 2: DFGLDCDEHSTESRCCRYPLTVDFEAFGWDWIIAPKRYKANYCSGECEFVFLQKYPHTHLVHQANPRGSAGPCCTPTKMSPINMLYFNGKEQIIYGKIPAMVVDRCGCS
In words: SPR affinity condition (capture 18.5 RU), pH7.4, 37C. As for the experimental part: (§1) The kinetic parameters of anti-latent myostatin antibodies against human, cynomolgus monkey (cyno), and mouse latent myostatin were assessed at 37° C. at pH7.4 using a BIACORE® T200 instrument (GE Healthcare). ProA/G (Pierce) was immobilized onto all flow cells of a CM4 chip using amine coupling kit (GE Healthcare). Anti-latent myostatin antibody and analytes were prepared in ACES pH7.4 (20 mM ACES, 150 mM NaCl, 1.2 mM CaCl₂), 0.05% TWEEN® 20, 0.005% NaN3). […] The sensor surface was regenerated with 25 mM NaOH. Kinetic parameters were determined by processing and fitting the data to a 1:1 binding model using BIACORE® T200 Evaluation software, version 2.0 (GE Healthcare).
(§2) All experimental settings were the same as in Example 7, except that measurements were also performed in ACES pH5.8 buffer in addition to ACES pH7.4 condition. Some antibodies were only measured against human latent myostatin. Antibody capture level was aimed at 185 RU and 18.5 RU, for avidity and affinity assay, respectively. Kinetic parameters were determined using 1:1 Binding fitting using BIACORE® T200 Evaluation software, version 2.0 (GE Healthcare).

For test [2], the target named is T1, Human latent myostatin. Description: SPR avidity condition (capture 185 RU), pH5.8, 37C; pH 5.8. The protocol:
as §1, §2

Test [3] addresses T2, cynomolgus monkey FcγRIIa2 extracellular domain, His-tagged (cynomolgus monkey).
T2 construct: also called cyno FcγRIIa2; cynoFcgRIIa2; not shown: C-terminal His-tag
T2 chain: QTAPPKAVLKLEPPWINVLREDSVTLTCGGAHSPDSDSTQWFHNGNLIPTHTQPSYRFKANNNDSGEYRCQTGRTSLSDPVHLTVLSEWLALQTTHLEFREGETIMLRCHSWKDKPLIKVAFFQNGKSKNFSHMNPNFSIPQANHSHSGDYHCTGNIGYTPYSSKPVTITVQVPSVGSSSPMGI
Description: SPR Biacore, antibody captured, FcgR analyte. A general note: In SPR one partner is held on a chip, and binding of the other changes the refractive index at the surface.

Test [4] deals with T3, human FcγRIIaR extracellular domain, His-tagged (human, UniProt P12318 34-217).
T3 construct: also called human FcγRIIa (type R); FcgRIIaR; not shown: C-terminal His-tag
T3 chain: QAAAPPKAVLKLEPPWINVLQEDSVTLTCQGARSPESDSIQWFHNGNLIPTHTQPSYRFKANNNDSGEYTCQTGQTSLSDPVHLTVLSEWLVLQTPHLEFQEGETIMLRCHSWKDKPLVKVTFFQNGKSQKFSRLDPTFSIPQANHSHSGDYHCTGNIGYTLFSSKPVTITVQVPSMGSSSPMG
In words: SPR Biacore, antibody captured, FcgR analyte.

The target in test [5] is T4, human FcγRIIb extracellular domain, His-tagged (human, UniProt P31994 43-217).
T4 construct: also called FcgRIIb (human); not shown: C-terminal His-tag
T4 sequence: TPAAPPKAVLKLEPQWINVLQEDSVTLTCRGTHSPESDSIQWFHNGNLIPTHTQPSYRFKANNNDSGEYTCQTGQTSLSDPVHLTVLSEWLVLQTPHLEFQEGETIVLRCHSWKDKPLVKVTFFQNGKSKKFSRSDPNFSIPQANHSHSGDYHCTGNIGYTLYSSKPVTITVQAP
In words: SPR Biacore, antibody captured, FcgR analyte.

B1: MS_M103205H707-SG1/M103202L802-SK1 (antibody, human IgG1, kappa, V domains shown)
VH: QVTLKESGPVLVKPTETLTLTCTVSGIDLSHYDISWVRQAPGKGLEWVGIISYAGSTYYASWAKGRLTISKDTSKNQVVLTMTNMDPVDTATYYCARGVPAYSHGGDLWGQGTLVTVSS
VL: DIVMTQSPATLSLSPGERATLSCTSSQSVYHDNWLSWFQQKPGQPPKLLIYWASTLAYGVPSRFSGSGSGTDFTLTISSLQPEDAATYYCAGGYGGGLYAFGQGTKVEIKR
notes: also called MS1032LO04-SG1
For orientation: kon means the second-order rate constant of association. Take B1: the kon was 1.54e+06 M⁻¹ s⁻¹ in the test with Human latent myostatin [1] and 781000 M⁻¹ s⁻¹ with Human latent myostatin [2].

B2: M103205H795-MY074/M103202L889-SK1 (antibody, human IgG1, kappa, name in EU numbering)
heavy: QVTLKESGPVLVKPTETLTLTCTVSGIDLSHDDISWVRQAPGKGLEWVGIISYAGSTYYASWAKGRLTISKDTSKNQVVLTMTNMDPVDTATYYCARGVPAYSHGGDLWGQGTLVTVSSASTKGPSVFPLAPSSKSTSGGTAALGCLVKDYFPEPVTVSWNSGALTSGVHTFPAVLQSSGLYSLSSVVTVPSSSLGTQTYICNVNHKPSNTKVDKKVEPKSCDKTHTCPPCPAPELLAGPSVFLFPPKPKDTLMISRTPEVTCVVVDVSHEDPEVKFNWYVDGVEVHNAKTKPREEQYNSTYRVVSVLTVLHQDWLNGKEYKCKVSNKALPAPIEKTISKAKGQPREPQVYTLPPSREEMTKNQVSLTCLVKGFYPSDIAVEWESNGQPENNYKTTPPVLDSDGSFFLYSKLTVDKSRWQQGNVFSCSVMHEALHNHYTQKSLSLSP
light: DIVMTQSPATLSLSPGERATLSCTSSQSVYHANWLSWFQQKPGQPPKLLIYWASTLAYGVPSRFSGSGSGTDFTLTISSLQPEDAATYYCAGGYGGGRYAFGQGTKVEIKRTVAAPSVFIFPPSDEQLKSGTASVVCLLNNFYPREAKVQWKVDNALQSGNSQESVTEQDSKDSTYSLSSTLTLSKADYEKHKVYACEVTHQGLSSPVTKSFNRGEC
notes: Substitution introduced into M103205H795-SG1; EU numbering
For orientation: Kd means the constant that tells how readily two partners part at equilibrium. Take B2: the figures for the Kd in test [3], in test [4] and in test [5] were 2300 nM, 210 nM and 3600 nM, respectively.
